Laboratory results taken from article PMC3925968, “Single molecule FRET reveals pore size and opening mechanism of a mechano-sensitive ion channel” (eLife, 2014).

Biological target: the molecule itself
Assay: FRET or BRET; single molecule FRET (TIRF) between one AF488 donor and one AF568 acceptor on the single cysteines of two subunits of one channel; channels in ~50 nm POPC liposomes with 2% BPE, immobilised on a coverslip by biotin-neutravidin; without and with 25% LPC

B1: E. coli MscL (EcoMscL) M42C (natural protein, UniProt P0A742 1-136, looked up)
chain: MSIIKEFREFAMRGNVVDLAVGVIIGAAFGKIVSSLVADIICPPLGLLIGGIDFKQFAVTLRDAQGDIPAVVMHYGVFIQNVFDFLIVAFAIFMAIKLINKLNRKKEEPAAAPAPTKEEVLLTEIRDLLKEQNNRS
modifications: Alexa Fluor 488 and/or Alexa Fluor 568 maleimide on the introduced cysteine (stochastic labelling)
notes: Mechanosensitive channel of large conductance MscL, Escherichia coli, single cysteine mutant on TM1; The MscL gene was cloned into pQE-32 as a BamHI-SalI fragment; 5% labeled channels were mixed with 95% unlabeled ones for reconstitution; also called mechanosensitive channel of large conductance; source: E. coli M15, purified from DDM solubilized membranes (TALON, FPLC Superdex 200), …
- binding result: binds

B2: E. coli MscL (EcoMscL) V82C (natural protein, UniProt P0A742 1-136, looked up)
chain: MSIIKEFREFAMRGNVVDLAVGVIIGAAFGKIVSSLVADIIMPPLGLLIGGIDFKQFAVTLRDAQGDIPAVVMHYGVFIQNCFDFLIVAFAIFMAIKLINKLNRKKEEPAAAPAPTKEEVLLTEIRDLLKEQNNRS
modifications: Alexa Fluor 488 and/or Alexa Fluor 568 maleimide on the introduced cysteine (stochastic labelling)
notes: Mechanosensitive channel of large conductance MscL, Escherichia coli, single cysteine mutant on TM2; Same construct as m1 apart from the cysteine position; Pentamer on cited work; some hexamers not excluded; source: E. coli M15, purified from DDM solubilized membranes (TALON, FPLC Superdex 200), reconstituted into liposomes; not shown: His6, N-terminal, kept
- binding result: binds

B3: E. coli MscL (EcoMscL) I25C (natural protein, UniProt P0A742 1-136, looked up)
chain: MSIIKEFREFAMRGNVVDLAVGVICGAAFGKIVSSLVADIIMPPLGLLIGGIDFKQFAVTLRDAQGDIPAVVMHYGVFIQNVFDFLIVAFAIFMAIKLINKLNRKKEEPAAAPAPTKEEVLLTEIRDLLKEQNNRS
modifications: Alexa Fluor 488 and/or Alexa Fluor 568 maleimide on the introduced cysteine (stochastic labelling)
notes: Mechanosensitive channel of large conductance MscL, Escherichia coli, single cysteine mutant on TM1 near the pore constriction; Same construct as m1 apart from the cysteine position; Pentamer on cited work; some hexamers not excluded; source: E. coli M15, purified from DDM solubilized membranes (TALON, FPLC Superdex 200), reconstituted into liposomes; not shown: His6, N-terminal, kept
- binding result: binds

B4: E. coli MscL (EcoMscL) Y75C (natural protein, UniProt P0A742 1-136, looked up)
chain: MSIIKEFREFAMRGNVVDLAVGVIIGAAFGKIVSSLVADIIMPPLGLLIGGIDFKQFAVTLRDAQGDIPAVVMHCGVFIQNVFDFLIVAFAIFMAIKLINKLNRKKEEPAAAPAPTKEEVLLTEIRDLLKEQNNRS
modifications: Alexa Fluor 488 and/or Alexa Fluor 568 maleimide on the introduced cysteine (stochastic labelling)
notes: as for B2
- binding result: binds

B5: E. coli MscL (EcoMscL) Q80C (natural protein, UniProt P0A742 1-136, looked up)
chain: MSIIKEFREFAMRGNVVDLAVGVIIGAAFGKIVSSLVADIIMPPLGLLIGGIDFKQFAVTLRDAQGDIPAVVMHYGVFICNVFDFLIVAFAIFMAIKLINKLNRKKEEPAAAPAPTKEEVLLTEIRDLLKEQNNRS
modifications: Alexa Fluor 488 and/or Alexa Fluor 568 maleimide on the introduced cysteine (stochastic labelling)
notes: as for B2
- binding result: binds

B6: E. coli MscL (EcoMscL) A27C (natural protein, UniProt P0A742 1-136, looked up)
chain: MSIIKEFREFAMRGNVVDLAVGVIIGCAFGKIVSSLVADIIMPPLGLLIGGIDFKQFAVTLRDAQGDIPAVVMHYGVFIQNVFDFLIVAFAIFMAIKLINKLNRKKEEPAAAPAPTKEEVLLTEIRDLLKEQNNRS
modifications: Alexa Fluor 488 and/or Alexa Fluor 568 maleimide on the introduced cysteine (stochastic labelling)
notes: Mechanosensitive channel of large conductance MscL, Escherichia coli, single cysteine mutant on TM1; Same construct as m1 apart from the cysteine position; Pentamer on cited work; some hexamers not excluded; source: E. coli M15, purified from DDM solubilized membranes (TALON, FPLC Superdex 200), reconstituted into liposomes; not shown: His6, N-terminal, kept
- binding result: binds
